Measured values as given in publication PMC5014153, “Overexpression of an Arabidopsis cysteine-rich receptor-like protein kinase, CRK5, enhances abscisic acid sensitivity and confers drought tolerance”.

Key:
Experiment in all cases: EMSA; 25 mM Hepes pH 8.0, 40 mM KCl, 5 mM MgCl2, 1 mM DTT, 1 mM EDTA, 8% glycerol; 50 ng protein, 20 fmol probe; 30 min at 28 C; native PAGE
6xHis-WRKY60 = 6xHis-WRKY60 (Arabidopsis thaliana, UniProt Q9SK33 1-271); conditions: protein: recombinant, tags: N-terminal Trx, HRV 3C site (pET48b), label: 5' biotin on each strand, blunt
6xHis-WRKY40 = target: T1, 6xHis-WRKY40 (Arabidopsis thaliana, UniProt Q9SAH7 1-302); conditions: protein: recombinant, tags: N-terminal Trx, HRV 3C site (pET48b), label: 5' biotin on each strand, blunt
T1 sequence: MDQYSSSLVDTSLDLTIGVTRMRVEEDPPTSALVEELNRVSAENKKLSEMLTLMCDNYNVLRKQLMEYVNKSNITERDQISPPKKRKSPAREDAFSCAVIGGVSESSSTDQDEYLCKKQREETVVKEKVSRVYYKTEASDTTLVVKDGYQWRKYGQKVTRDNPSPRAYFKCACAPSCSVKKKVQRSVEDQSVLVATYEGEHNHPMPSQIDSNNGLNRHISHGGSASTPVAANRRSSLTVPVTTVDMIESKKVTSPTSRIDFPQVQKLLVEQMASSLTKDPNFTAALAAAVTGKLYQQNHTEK

6xHis-WRKY18 = 6xHis-WRKY18 (Arabidopsis thaliana, UniProt Q9C5T4 1-310); conditions: protein: recombinant, tags: N-terminal Trx, HRV 3C site (pET48b), chain copies: 2, label: 5' biotin on each strand, blunt
Sequence of 6xHis-WRKY18 (Q9C5T4 whole entry): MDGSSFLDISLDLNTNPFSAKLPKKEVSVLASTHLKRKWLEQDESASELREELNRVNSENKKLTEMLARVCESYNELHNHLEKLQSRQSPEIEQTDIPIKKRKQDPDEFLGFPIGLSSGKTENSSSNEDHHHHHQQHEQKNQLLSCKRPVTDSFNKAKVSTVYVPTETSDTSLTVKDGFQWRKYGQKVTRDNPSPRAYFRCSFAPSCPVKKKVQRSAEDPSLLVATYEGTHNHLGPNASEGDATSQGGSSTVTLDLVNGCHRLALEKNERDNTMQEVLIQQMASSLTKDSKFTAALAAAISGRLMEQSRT

Sequence of 6xHis-WRKY60 (Q9SK33 whole entry): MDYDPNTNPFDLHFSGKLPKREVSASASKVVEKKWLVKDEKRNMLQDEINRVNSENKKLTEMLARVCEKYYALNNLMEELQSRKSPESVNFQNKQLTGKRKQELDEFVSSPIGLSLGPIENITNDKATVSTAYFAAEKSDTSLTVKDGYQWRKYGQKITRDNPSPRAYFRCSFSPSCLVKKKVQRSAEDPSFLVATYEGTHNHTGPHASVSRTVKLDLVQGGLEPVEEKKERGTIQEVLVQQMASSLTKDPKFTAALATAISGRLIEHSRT

B1: ProCRK5-1 (dsDNA)
DNA 1: TTGATGTTACTCGTCTAGTTGACCTTGACTTGCAAGATATTGTATTATTTTACAAAAACCAAAATTTGACTGGCTTGGCT
DNA 2: AGCCAAGCCAGTCAAATTTTGGTTTTTGTAAAATAATACAATATCTTGCAAGTCAAGGTCAACTAGACGAGTAACATCAA
B1: no binding (6xHis-WRKY60); binds (6xHis-WRKY40); binds (6xHis-WRKY18).

B2: ProCRK5-1 mW1 (dsDNA)
DNA 1: TTGATGTTACTCGTCTAGTTGACCTTGACTTGCAAGATATTGTATTATTTTACAAAAACCAAAATTTAAATGGCTTGGCT
DNA 2: AGCCAAGCCATTTAAATTTTGGTTTTTGTAAAATAATACAATATCTTGCAAGTCAAGGTCAACTAGACGAGTAACATCAA
B2: binds (6xHis-WRKY40); binds (6xHis-WRKY18).
